The target of series [1] is Spycatcher-WELQ-Tem1 fusion protein (Spycatcher followed by a SplB protease site with a P1' methionine and the lactamase Tem1) (UniProt P62593).
Series [2] concerns Spycatcher-WELQ-LSSmOrange fusion protein.

The values that follow come from patent publication US20180141972.

For the substance SplB protease fused to Spytag, the “cleavage of the fusion protein to native Tem1 (gel, FIG. 3)” value in series [1] is listed as “this led to the cleavage of Tem1 at the first methionine”. Further, the “cleavage of the fusion protein to native LSSmOrange (gel, FIG. 4)” value in series [2] is on record as “A similar experiment with LSSmOrange replacing Tem1 yielded the same result”.
